Measurements taken from the supplement of paper PMC9112550, “Optimization of the antimicrobial peptide Bac7 by deep mutational scanning” (BMC Biology, 2022).

System: Escherichia coli TOP10
Test: shrunken log2 fold change of peptide-encoding DNA abundance (4.5 h post-induction vs induction); higher = less antimicrobial activity (less host growth inhibition)
Settings: time post-induction: 4.5 h; library: site-saturation at positions 5, 18, 19, 20
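Also: peptides expressed intracellularly from a pBAD plasmid library in pooled LB shake-flask culture, induced with 0.3% L-arabinose, DNA abundance read by NGS, three biological replicates, DESeq2 with apeglm shrinkage.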

Sequence | shrunken log2 fold change
RRIRSRPPRLPRPRPRPKEAPRP | -0.144
RRIRSRPPRLPRPRPRPKEKPRP | -0.00788
RRIRSRPPRLPRPRPRPKEYPRP | 0.167
RRIRSRPPRLPRPRPRPKFHPRP | -0.441
RRIRSRPPRLPRPRPRPKFIPRP | -0.482
RRIRSRPPRLPRPRPRPKGMPRP | -0.0819
RRIRSRPPRLPRPRPRPKHYPRP | -0.233
RRIRSRPPRLPRPRPRPKIDPRP | -0.000854
RRIRSRPPRLPRPRPRPKIQPRP | -0.311
RRIRSRPPRLPRPRPRPKKAPRP | 0.0943
RRIRSRPPRLPRPRPRPKLRPRP | 0.111
RRIRSRPPRLPRPRPRPKMEPRP | -0.0294
RRIRSRPPRLPRPRPRPKNMPRP | -0.324
RRIRSRPPRLPRPRPRPKNVPRP | -0.29
RRIRSRPPRLPRPRPRPKPMPRP | 0.2
RRIRSRPPRLPRPRPRPKQEPRP | 0.286
RRIRSRPPRLPRPRPRPKQQPRP | 0.741
RRIRSRPPRLPRPRPRPKREPRP | 0.393
RRIRSRPPRLPRPRPRPKRFPRP | 0.0952
RRIRSRPPRLPRPRPRPKRGPRP | 0.0665
RRIRSRPPRLPRPRPRPKRHPRP | 0.169
RRIRSRPPRLPRPRPRPKRPPRP | 0.413
RRIRSRPPRLPRPRPRPKRTPRP | 0.312
RRIRSRPPRLPRPRPRPKTIPRP | -0.174
RRIRSRPPRLPRPRPRPKVFPRP | -0.063

Sequence | shrunken log2 fold change
RRIRSRPPRLPRPRPRPKVLPRP | 0.248
RRIRSRPPRLPRPRPRPKWIPRP | -0.553
RRIRSRPPRLPRPRPRPKYAPRP | -0.323
RRIRSRPPRLPRPRPRPKYSPRP | -0.253
RRIRSRPPRLPRPRPRPLALPRP | -0.107
RRIRSRPPRLPRPRPRPLDDPRP | -0.0921
RRIRSRPPRLPRPRPRPLFMPRP | -0.236
RRIRSRPPRLPRPRPRPLFQPRP | -0.126
RRIRSRPPRLPRPRPRPLGHPRP | -0.051
RRIRSRPPRLPRPRPRPLIDPRP | -0.197
RRIRSRPPRLPRPRPRPLKRPRP | 0.026
RRIRSRPPRLPRPRPRPLKSPRP | 0.0254
RRIRSRPPRLPRPRPRPLKTPRP | -0.0127
RRIRSRPPRLPRPRPRPLKWPRP | 0.0381
RRIRSRPPRLPRPRPRPLKYPRP | -0.653
RRIRSRPPRLPRPRPRPLNVPRP | -0.0872
RRIRSRPPRLPRPRPRPLPSPRP | 0.255
RRIRSRPPRLPRPRPRPLQWPRP | -0.0911
RRIRSRPPRLPRPRPRPLSLPRP | 0.0119
RRIRSRPPRLPRPRPRPLSNPRP | -0.00773
RRIRSRPPRLPRPRPRPLSWPRP | 0.239
RRIRSRPPRLPRPRPRPLVAPRP | 0.27
RRIRSRPPRLPRPRPRPLVVPRP | 0.268
RRIRSRPPRLPRPRPRPLWMPRP | -0.0686
RRIRSRPPRLPRPRPRPLYPPRP | -0.813

Sequence | shrunken log2 fold change
RRIRSRPPRLPRPRPRPMAEPRP | 0.348
RRIRSRPPRLPRPRPRPMCNPRP | -0.287
RRIRSRPPRLPRPRPRPMDRPRP | -0.155
RRIRSRPPRLPRPRPRPMDTPRP | 0.0136
RRIRSRPPRLPRPRPRPMELPRP | -0.187
RRIRSRPPRLPRPRPRPMIEPRP | -0.0828
RRIRSRPPRLPRPRPRPMIQPRP | 0.0624
RRIRSRPPRLPRPRPRPMMFPRP | 0.0732
RRIRSRPPRLPRPRPRPMMIPRP | -0.196
RRIRSRPPRLPRPRPRPMQQPRP | 0.178
RRIRSRPPRLPRPRPRPMWPPRP | 0.447
RRIRSRPPRLPRPRPRPMWWPRP | 0.551
RRIRSRPPRLPRPRPRPMYEPRP | 0.0571
RRIRSRPPRLPRPRPRPMYIPRP | -0.354
RRIRSRPPRLPRPRPRPNAIPRP | 0.235
RRIRSRPPRLPRPRPRPNCGPRP | -0.146
RRIRSRPPRLPRPRPRPNDNPRP | -0.57
RRIRSRPPRLPRPRPRPNDSPRP | -0.342
RRIRSRPPRLPRPRPRPNFGPRP | -0.265
RRIRSRPPRLPRPRPRPNICPRP | -0.0465
RRIRSRPPRLPRPRPRPNIKPRP | -0.491
RRIRSRPPRLPRPRPRPNLHPRP | -0.219
RRIRSRPPRLPRPRPRPNMLPRP | -0.323
RRIRSRPPRLPRPRPRPNNRPRP | -0.475
RRIRSRPPRLPRPRPRPNPNPRP | -0.283
